The source of these data is patent US7244563B2, “Genes for plant fatty acid modifying enzymes associated with conjugated double bond formation” (E. I. du Pont de Nemours and Company, priority 2002, dated 2007).

For one test, the system named is soybean seeds. As to the kind of experiment: Fatty acid composition of seeds of regenerated transgenic soybean plants. The class given is in vivo. The note with it: for Eleostearic / Other / 16:0 / 18:0 / 18:1 / 18:2 / 18:3 / α-Parinaric: single soybean seed; for Eleostearic: includes cis-trans isomers of α-eleostearic acid (<1.5 wt %); for Other: primarily 20:0, 20:1, 22:0, and 22:1; for 16:0 / 18:0 / 18:1 / 18:2 / 18:3 / α-Parinaric: % of total oil weight. The source says: To examine the ability of the Momordica fatty acid modifying enzyme associated with conjugated double bond synthesis to function in seeds of crop plants, transgenic soybean embryos expressing this enzyme were regenerated into plants. The fatty acid compositions of segregating seeds from these plants were examined by GC and GC-MS as described in Example 4

Test [1] has as its system Saccharomyces cerevisiae INVSc1 cells. As to the kind of experiment: Expression in Saccharomyces cerevisiae, accumulation of fatty acids with conjugated double bonds. The class given is cell-based. The note with it: 4 days at 16°. The protocol:
The Impatiens balsamina clone ImpH8Fad2 was partially digested with the restriction enzymes EcoRI and XhoI. A resulting 1.5 kb DNA fragment containing the entire cDNA insert was purified by agarose gel electrophoresis. The cDNA insert was obtained from agarose gel by digestion with GELase™ (Epicentre Technologies) according to the manufacturer's instructions, ethanol precipitated, dried and resuspended in 20 μL of water. The purified cDNA was ligated into the EcoRI and XhoI sites of the Saccharomyces cerevisiae expression vector pYES2 (Invitrogen) using T4 DNA ligase (New England Biolabs). The resulting plasmid pYes2/ImpH8Fad2 was introduced into Saccharomyces cerevisiae INVSc1 (=Invitrogen)cells by lithium acetate-mediated transformation [Sherman F, Fink G R, Hicks J B, Methods in Yeast Genetics: A Laboratory Course Manual, Cold Spring Harbor Lab. Press, Plainview, N.Y. (1987)]. Transformed cells were selected by their ability to grow in the absence of uracil. Individual colonies of transformed cells were then grown for 2 days at 30° in growth media lacking uracil [0.17% (w/v) yeast nitrogen base without amino acids (Difco), 0.5% (w/v) ammonium sulfate, and 0.18% SC-URA (Bio101)] supplemented with glycerol and glucose to a final concentration of 5% (v/v) and 0.5% (w/v), respectively. Cells were then washed twice in the growth media described above that was supplemented instead with galactose to a final concentration of 2% (w/v). The washed cells were then diluted to O.D.600≈0.2 in the galactose-containing growth media that also contained Tergitol NP-40 (Sigma) at a concentration of 0.2% (w/v). Aliquots of these cells were grown without exogenous fatty acids or with the addition of either linoleic acid (18:2Δ^9cis,12cis) or α-linolenic acid (18:3Δ^9cis,12cis,15cis) at a final concentration of 2 mM. Following 4 days of growth at 16°, the S. cerevisiae cells were harvested and examined for the accumulation of fatty acids containing conjugated double bonds as described in Example 4. In cells grown in media containing linoleic acid, α-eleostearic acid was detected in amounts of up to 0.6% (w/w) of the total fatty acids.

The mark [2] stands for this setting: media containing linoleic acid 2 mM.
[3] abbreviates: media containing α-linolenic acid 2 mM.

B1: MomFad2: Momordica charantia fatty acid modifying enzyme associated with conjugated double bond formation, SEQ ID NO:4, cDNA SEQ ID NO:3 (protein, listed as Momordica charantia)
chain: MGGRGAIGVLRNGGGPKKKMGPGQGLGPGERITHARPPFSISQIKKAIPPHCFQRSLRRSFSYLLSDIALVSAFYYVADTYFHRLPHPLLHYLAWPVYWFCQGAVLTGMWGIAHDCGHHAFSDYQLVDDVVGFLIHSLVFVPYFSFKISHRRHHSNTSSVDRDEVFVPKPKAKMPWYFKYLTNPPARVFIIFITLTLGWPMYLTFNISGRYYGRFTSHFDPNSPIFSPKERVLVHISNAGLVATGYLLYRIAMAKGVGWLIRLYGVPLIVLNACVVLITALQHTHPSFPYYDSTEWDWLRGNLVTVDRDYGPIMNRVFHHITDTHVVHHLFPSMPHYNGKEATVAAKRILGEYYQFDGTPIWKAAWREFRECVYVEPDEDDGATSGSSSKGVFWYHNKL
In the test on soybean seeds (Line 1), B1 showed an Eleostearic of 13.9 Weight % and an Other below 2.0 Weight %. In the test with soybean seeds (Line 2), this molecule gave an Eleostearic of 13.4 Weight % and an Other below 2.2 Weight %. In the test on soybean seeds (Line 3), this molecule displayed an Eleostearic of 11.6 Weight % and an Other below 1.5 Weight %. Moreover, in the test with soybean seeds (transgenic Line 1), the “16:0” value stood at 8.8 Weight %, the “18:0” value was determined as 3.6 Weight %, the “18:1” value is 44.5 Weight % and the “18:2” value turned out to be 25.7 Weight %. Besides, in the test with soybean seeds (transgenic Line 1), the “18:3” value is recorded as 1.0 Weight % and the α-Parinaric amounted to 0.5 Weight %. For the same molecule, in the test on soybean seeds (transgenic Line 2), the “16:0” value is on record as 8.4 Weight %, the “18:0” value came out at 3.5 Weight %, the “18:1” value was determined as 48.9 Weight % and the “18:2” value is given as 22.3 Weight %. In the test on soybean seeds (transgenic Line 2), the “18:3” value is on record as 0.7 Weight % and the α-Parinaric turned out to be 0.4 Weight %. Moreover, in the test on soybean seeds (transgenic Line 3), the “16:0” value turned out to be 9.7 Weight %, the “18:0” value was determined as 3.8 Weight %, the “18:1” value is 47.2 Weight % and the “18:2” value is 24.7 Weight %. Further, in the test on soybean seeds (transgenic Line 3), the “18:3” value is 1.0 Weight % and the α-Parinaric was 0.5 Weight %. In addition, in the test on soybean seeds (transgenic soybean seeds), the “α-eleostearic acid of the total fatty acids” value is “more than 13%” and the “α-parinaric acid of the total fatty acids” value was “approximately 0.5%”. The “oleic acid (18:1) content of the total fatty acids” value in the test on soybean seeds (transgenic soybean seeds, about 18 wt % in wild-type) is around 50 wt %. In addition, the “linolenic acid (18:3) content of the total fatty acids” value with soybean seeds (transgenic soybean seeds, nearly 9 wt % in wild-type) is listed as “about 1 wt %”.

B2: ImpFad2: Impatiens balsamina fatty acid modifying enzyme associated with conjugated double bond formation, SEQ ID NO:2, cDNA SEQ ID NO:1 (protein, listed as Impatiens balsamina)
chain: MGEVGPTNRTKTKLDKQQESENRVPHEPPPFTLSDLKKAIPPHCFERSLVKSFYHVIHDIIILSFFYYVAANYIPMLPQNLRYVAWPIYWAIQGCVQLGILVLGHECGHHAFSDYQWVDDMVGFVLHSSQLIPYFSWKHSHRRHHSNTASIERDEVYPPAYKNDLPWFAKYLRNPVGRFLMIFGALLFGWPSYLLFNANGRLYDRFASHYDPQSPIFNNRERLQVIASDVGLVFAYFVLYKIALAKGFVWLICVYGVPYVILNGLIVLITFLQHTHPNLPRYDLSEWDWLRGALSTVDRDYGMLNKVFHNVTDTHLVHHLFTTMPHYRAKEATEVIKPILGDYYKFDDTPFLKALWKDMGKCIYVESDVPGKNKGVYWYNNDI
Regarding B2, in test [1] (setting [2]), the “α-eleostearic acid of the total fatty acids” value is “up to 0.6 % (w/w)” and the α-parinaric acid detection entry is listed as “no α-parinaric acid was detected”. In test [1] (setting [3]), the α-eleostearic acid detection entry is on record as “no α-eleostearic acid was detected” and the “α-parinaric acid of the total fatty acids” value was “up to 0.9 % (w/w)”.
